Experimental data: patent publication US20150232556A1 (INNATE PHARMA, published 2015)

How the values were obtained:
[1] = molecular target: T1, KIR3DL2 mutant M2 (I60N; G62S) (human, UniProt P43630 22-455); experiment: binding to HEK-293T cells transfected with KIR3DL2 mutant; '-' = substantially complete loss of binding
T1 construct: On transfected HEK-293T cells; also called Mutant 2; Number 2

[2] = molecular target: T2, KIR3DL2 mutant M1 (R13W; A25T; Q27R) (human, UniProt P43630 22-455); experiment: as above
T2 construct: On transfected HEK-293T cells; also called Mutant 1; Number 1

[3] = molecular target: T3, KIR3DL2 mutant M1 + 2 (R13W; A25T; Q27R; I60N; G62S) (human, UniProt P43630 22-455); experiment: as above
T3 construct: On transfected HEK-293T cells; also called Number 30 (1 + 2)

[4] = molecular target: T4, KIR3DL2 mutant M1 + 2A1 (F50A; R53S) (human, UniProt P43630 22-455); experiment: binding to HEK-293T cells transfected with KIR3DL2 mutant
T4 construct: On transfected HEK-293T cells; also called Number 33 (1 + 2 A1)

[5] = molecular target: T5, KIR3DL2 mutant M4 (S45I; V47I) (human, UniProt P43630 22-455); experiment: as above
T5 construct: On transfected HEK-293T cells; also called Number 4

[6] = molecular target: T6, KIR3DL2 mutant M3 (R32H; G33R) (human, UniProt P43630 22-455); experiment: as above
T6 construct: On transfected HEK-293T cells; also called Mutant 3; Number 3

[7] = molecular target: T7, KIR3DL2 mutant M1 + 2A3 (P14S; S15A; H23S) (human, UniProt P43630 22-455); experiment: as above
T7 construct: On transfected HEK-293T cells; also called mutant 2A3; Number 35 (1 + 2 A3)

[8] = molecular target: T8, KIR3DL2 mutant M6 (R78H; L82P) (human, UniProt P43630 22-455); experiment: as above
T8 construct: On transfected HEK-293T cells; also called Mutant 6; Number 6

[9] = molecular target: T7, KIR3DL2 mutant M1 + 2A3 (P14S; S15A; …); experiment: binding to HEK-293T cells transfected with KIR3DL2 mutant; '-' = substantially complete loss of binding
[10] = molecular target: T1, KIR3DL2 mutant M2 (I60N; G62S); experiment: binding to HEK-293T cells transfected with KIR3DL2 mutant
[11] = molecular target: T2, KIR3DL2 mutant M1 (R13W; A25T; Q27R); experiment: as above
[12] = molecular target: T9, KIR3DL2 mutant M1 + 2A5 (S140Q) (human, UniProt P43630 22-455); experiment: as above
T9 construct: On transfected HEK-293T cells; also called Number 37 (1 + 2 A5)

KIR3DL2 mutant M5 (P66T) = molecular target: T10, KIR3DL2 mutant M5 (P66T) (human, UniProt P43630 22-455); experiment: as above
T10 construct: On transfected HEK-293T cells; also called Number 5

[13] = molecular target: T11, KIR3DL2 mutant MD0/HLA1 (F9S; S11A) (human, UniProt P43630 22-455); experiment: as above
T11 construct: On transfected HEK-293T cells; also called Number 31 (DO-HLA1)

[14] = molecular target: T12, KIR3DL2 mutant MD0/HLA2 (H29S; F34A) (human, UniProt P43630 22-455); experiment: as above
T12 construct: On transfected HEK-293T cells; also called Number 32 (DO-HLA2)

[15] = molecular target: T3, KIR3DL2 mutant M1 + 2 (R13W; A25T; …); experiment: as above
[16] = molecular target: T13, wild-type human KIR3DL2 polypeptide (allele *002) (human, UniProt P43630 22-455); experiment: binding to HEK-293T cells transfected with wild-type KIR3DL2
T13 construct: also called WTaKIR3DL2; unmutated wild type KIR3DL2

[17] = molecular target: T14, KIR3DL2 mutant M14 (W226A) (human, UniProt P43630 22-455); experiment: binding to HEK-293T cells transfected with KIR3DL2 mutant; '-' = substantially complete loss of binding
T14 construct: On transfected HEK-293T cells; also called Mutant 14; Number 14

[18] = molecular target: T15, KIR3DL2 mutant M19 (A278H; L279S; V282E) (human, UniProt P43630 22-455); experiment: binding to HEK-293T cells transfected with KIR3DL2 mutant
T15 construct: On transfected HEK-293T cells; also called Number 19

[19] = molecular target: T16, KIR3DL2 mutant M18 (A278H; L279A; C281A; V282A) (human, UniProt P43630 22-455); experiment: as above
T16 construct: On transfected HEK-293T cells; also called Number 18

[20] = molecular target: T17, KIR3DL2 mutant M17 (P249A) (human, UniProt P43630 22-455); experiment: as above
T17 construct: On transfected HEK-293T cells; also called Mutant 17; Number 17

[21] = molecular target: T18, KIR3DL2 mutant M13 (T212A; N218A) (human, UniProt P43630 22-455); experiment: as above
T18 construct: On transfected HEK-293T cells; also called Number 13

[22] = molecular target: T19, KIR3DL2 mutant M21 (C281Y; C315P) (human, UniProt P43630 22-455); experiment: as above
T19 construct: On transfected HEK-293T cells; also called Number 21

[23] = molecular target: T20, KIR3DL2 mutant M12 (I196A; L199A; N285A; S286A) (human, UniProt P43630 22-455); experiment: as above
T20 construct: On transfected HEK-293T cells; also called Mutant 12; Number 12

Binder | binding result [1] | binding result [3] | binding result [4] | binding result [5] | binding result [6] | binding result [8] | binding result [11] | binding result [12] | binding result (KIR3DL2 mutant M5 (P66T)) | binding result [13] | binding result [14] | binding result [16] | binding result [17] | binding result [18] | binding result [19] | binding result [20] | binding result [21] | binding result [22] | binding result [23] | also measured
antibody 13H1 (antibody, V domains shown, Parental murine monoclonal antibody) VH: EVQLQQSGPELVKPGASMKISCKASHYSFIGYTMNWVKQRHGKNLEWIGLINPYNGDTTYNQKFKGKASLTVDKSSSTAYMEILSLTSEDSAVYYCARENWGYPYAMDYWGQGTSVTVS VL: not shown | no binding | no binding | binds | binds | binds | binds | – | – | – | – | – | – | – | – | – | – | – | – | – | binding result [2]: no binding; binding result [7]: binds
antibody 1E2 (antibody, V domains shown, Parental murine monoclonal antibody) VH: QVQLQQSGAELVRPGVSVKISCKGSGYTFTDYAMNWVKQSHAKSLEWIGVISTYYGDANYNQKFKGKATMTVDKSSSTAYMELARLTSEDSAIYYCALIYYDYDGSYWGQGTTLTVS VL: DVVMTQTPLSLPVSLGDQASISCRSSQSLVHSNGNTYLHWYLQKPGQSPKLLIYKVSNRFSGVPDRFSGSGSGTDFTLKISRVEAEDLGVYFCSQSTHVPPYTFGGGTKLEIK | – | – | binds | binds | binds | binds | binds | binds | binds | binds | binds | binds | – | – | – | – | – | – | – | binding result [9]: no binding; binding result [10]: binds; binding result [15]: binds
antibody 20E9 (antibody, V domains shown, Parental murine monoclonal antibody) VH: QVQLQQSGAEVARPGASVKLSCKSSGFTFTTYWMQWVKQRPGQGLEWIGAIYPGDGDTRYTQKFKGKATLTADKSSITAYMQLSSLASEDSAVYYCARRGDYGNYGMDYWGQGTSVTVSS VL: DVLMTQTPLSLPVSLGDQASISCRSSQSIVHSNGNTYLEWYLQKPGQSPKLLIYKVSNHFSGVPDRFSGSGSGTDFTLKISRVEAEDLGVYYCFQGSHVPPTFGGGTKLEIK | – | – | – | – | – | – | – | – | – | – | – | binds | no binding | binds | binds | binds | binds | binds | binds | –
antibody 1C3 (antibody, V domains shown, Parental murine monoclonal antibody; also called 1C3 MAb) VH: QVQLQQSGAELARPGASVKLSCKASGYTFTSYWMQWVKQRPGQGLEWIGAIYPGDGDTRYTQKFKGKATLTADKSSSTAYMQLSSLASEDSAVYYCARRYDGYYHFDYWGQGTTLTVS VL: DIVMTQSPSSLAVTAGEKVTMSCKSSQSLLWSVNQKNYLSWYQQKQRQPPKLLIYGASIRESWVPDRFTGSGSGTDFTLTISNVHAEDLAVYYCQHNHGSFLPLTFGSGTKLEIK | – | – | – | – | – | – | – | – | – | – | – | binds | no binding | binds | binds | binds | binds | binds | binds | –
antibody 10F6 (antibody, V domains shown, Parental murine monoclonal antibody) VH: QIQLVQSGPELKKPGETVRISCKASGYTFTIAGMQWVQKMPGKGLKWIGWINTHSGVPKYAEDFKGRFAFSLETSANIAYLQISNLKNEDTATYFCARGGDEGVMDYWGQGTSVTVS VL: DIVMTQSHKFMSTSVGDRVSITCKASQDVSTAVAWYHQKPGQSPKLLIYWASTRHTGVPDRFSGSGSGTDYTLTISALQAEDLALYYCQQHYNTPWTFGGGTKLEIK | no binding | no binding | binds | binds | binds | binds | binds | binds | binds | binds | binds | binds | – | – | – | – | – | – | – | –
antibody 2B12 (antibody, V domains shown, Parental murine monoclonal antibody) VH: QIQLVQSGPELKKPGETVRISCKASGYTFTTAGMQWVQKTPGKGLKWIGWINSHSGVPKYAEDFKGRFAFSLETSASTAYLQISTLKNEDTATYFCARGGDEGVMDYWGQGTSVTVS VL: DIVMTQSHKFMSTSLGDRVSFTCKASQDVSTAVAWYQQKPGQSPKLLIYWTSTRHTGVPDRFTGSGSGTDYTLTISSVQAEDLALYYCQQHYSTPWTFGGGTKLEIK | no binding | no binding | binds | binds | binds | binds | binds | binds | binds | binds | binds | binds | – | – | – | – | – | – | – | –
